First the molecules themselves.
T1: GSDMB (residues 1-411) (human, UniProt Q8TAX9-1 1-411)
T1 chain: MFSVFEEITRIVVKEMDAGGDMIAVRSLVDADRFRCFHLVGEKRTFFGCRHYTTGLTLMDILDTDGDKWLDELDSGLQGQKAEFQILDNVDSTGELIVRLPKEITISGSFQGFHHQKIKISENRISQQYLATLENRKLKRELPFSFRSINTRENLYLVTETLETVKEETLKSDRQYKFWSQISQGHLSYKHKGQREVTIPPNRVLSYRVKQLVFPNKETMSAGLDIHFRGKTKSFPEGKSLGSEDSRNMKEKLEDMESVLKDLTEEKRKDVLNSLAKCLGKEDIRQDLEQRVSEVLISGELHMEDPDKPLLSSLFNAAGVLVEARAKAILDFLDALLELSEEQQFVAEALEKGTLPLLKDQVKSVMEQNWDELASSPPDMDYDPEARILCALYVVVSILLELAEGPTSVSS

T2: GSDMB (residues 1-411) (human, UniProt Q8TAX9-1 1-411)
T2 construct: residues 1-411; For the crystal the complex was obtained by co-transforming the GSDMB and IpaH7.8 plasmids; limits 1-411 are stated for the crystallised protein; also called gasdermin B; WT GSDMB; source: E. coli BL21 (DE3), purified (Ni-NTA, anion exchange, SEC); not shown: His, N-terminal, cleaved; MBP, N-terminal, cleaved
T2 sequence: T1 chain

B1: N-terminal LRR domain (residues 23–264) of IpaH7.8 (domain or fragment)
chain: SNEHYLRILTEWEKNSSPGEERGIAFNRLSQCFQNQEAVLNLSDLNLTSLPELPKHISALIVENNKLTSLPKLPAFLKELNADNNRLSVIPELPESLTTLSVRSNQLENLPVLPNHLTSLFVENNRLYNLPALPEKLKFLHVYYNRLTTLPDLPDKLEILCAQRNNLVTFPQFSDRNNIRQKEYYFHFNQITTLPESFSQLDSSYRINISGNPLSTRVLQSLQRLTSSPDYHGPQIYFSMSD
B2: human GSDMD (natural protein)
chain: MGSAFERVVRRVVQELDHGGEFIPVTSLQSSTGFQPYCLVVRKPSSSWFWKPRYKCVNLSIKDILEPDAAEPDVQRGRSFHFYDAMDGQIQGSVELAAPGQAKIAGGAAVSDSSSTSMNVYSLSVDPNTWQTLLHERHLRQPEHKVLQQLRSRGDNVYVVTEVLQTQKEVEVTRTHKREGSGRFSLPGATCLQGEGQGHLSQKKTVTIPSGSTLAFRVAQLVIDSDLDVLLFPDKKQRTFQPPATGHKRSTSEGAWPQLPSGLSMMRCLHNFLTDGVPAEGAFTEDFQGLRAEVETISKELELLDRELCQLLLEGLEGVLRDQLALRALEEALEQGQSLGPVEPLDGPAGAVLECLVLSSGMLVPELAIPVVYLLGALTMLSETQHKLLAEALESQTLLGPLELVGSLLEQSAPWQERSTMSLPPGLLGNSWGEGAPAWVLLDECGLELGEDTPHVCWEPQAQGRMCALYASLALLSGLSQEPH
notes: also called hGSDMD; WT hGSDMD; source: E. coli BL21 (DE3), purified (same protocol as GSDMB); not shown: His, N-terminal, cleaved; MBP, N-terminal, cleaved
B3: hGSDMD S124R (natural protein, human, UniProt P57764 1-484, looked up)
chain: B2 chain with S124R
notes: GSDMD, human, isoform 1 of UniProtKB P57764; construct as m34; also called hGSDMD bearing the S124R mutation; source: E. coli BL21 (DE3), purified (same protocol as GSDMB); not shown: His, N-terminal, cleaved; MBP, N-terminal, cleaved
B4: IpaH7.8 protein (residues 23–565) (enzyme)
chain: SNEHYLRILTEWEKNSSPGEERGIAFNRLSQCFQNQEAVLNLSDLNLTSLPELPKHISALIVENNKLTSLPKLPAFLKELNADNNRLSVIPELPESLTTLSVRSNQLENLPVLPNHLTSLFVENNRLYNLPALPEKLKFLHVYYNRLTTLPDLPDKLEILCAQRNNLVTFPQFSDRNNIRQKEYYFHFNQITTLPESFSQLDSSYRINISGNPLSTRVLQSLQRLTSSPDYHGPQIYFSMSDGQQNTLHRPLADAVTAWFPENKQSDVSQIWHAFEHEEHANTFSAFLDRLSDTVSARNTSGFREQVAAWLEKLSASAELRQQSFAVAADATESCEDRVALTWNNLRKTLLVHQASEGLFDNDTGALLSLGREMFRLEILEDIARDKVRTLHFVDEIEVYLAFQTMLAEKLQLSTAVKEMRFYGVSGVTANDLRTAEAMVRSREENEFTDWFSLWGPWHAVLKRTEADRWAQAEEQKYEMLENEYSQRVADRLKASGLSGDADAEREAGAQVMRETEQQIYRQLTDEVLALRLSENGSRLHHS
notes: IpaH7.8, type III secretion effector and E3 ubiquitin ligase of Shigella flexneri; residues 23-565; synthesized fragment; Limits 23-565 are stated for the SEC experiment; source: E. coli BL21 (DE3), purified (Ni-NTA, anion exchange, SEC); not shown: His, N-terminal, cleaved

Changes are numbered by the printed parent chain. In names and notes the source's numbering stands.

The target in assay [1] is T1, GSDMB (residues 1-411). Kind of assay: ITC.
Assay [2] deals with B4. Kind of assay: ITC; MicroCal PEAQ-ITC, 25 °C; IpaH7.8 proteins injected into the cell containing GSDMB or GSDMD proteins; 25 mM Tris-HCl pH 8.0, 150 mM NaCl unless otherwise stated (one titration of IpaH7.8 into GSDMB in a high salt buffer). The settings on record: both partners purified.
The target in assay [3] is T2, GSDMB (residues 1-411). The description is as above. The following applies: both partners purified.
Assay [4] has as its target T1, GSDMB (residues 1-411). Briefly: ITC; 500 mM NaCl.

B1: in the assay with GSDMB (residues 1-411) [1], the dissociation constant (Kd) came out at 90 nM.

For B2, in assay [2], the binding result is “binds”.

Take B3: the binding result in assay [2] is given as “binds”.

With B4, in the assay with GSDMB (residues 1-411) [3], the “binding affinity in a high salt buffer against that in the standard buffer” value stood at 0.5 fold. For the same molecule, the values for the Kd with GSDMB (residues 1-411) [4] and with GSDMB (residues 1-411) [1] were 163 nM and 94 nM, respectively.

These data come from publication PMC9813358, “Insights into the GSDMB-mediated cellular lysis and its targeting by IpaH7.8” (Nature Communications, 2023).
